Target: endogenous PKM2 (human (endogenous in A549, PC9 and HEK293T)) (UniProt P14618)
Test: cross-linking

Chain of endogenous PKM2, P14618 1-531 (natural protein; other documents disagree on this pair) (P14618 whole entry): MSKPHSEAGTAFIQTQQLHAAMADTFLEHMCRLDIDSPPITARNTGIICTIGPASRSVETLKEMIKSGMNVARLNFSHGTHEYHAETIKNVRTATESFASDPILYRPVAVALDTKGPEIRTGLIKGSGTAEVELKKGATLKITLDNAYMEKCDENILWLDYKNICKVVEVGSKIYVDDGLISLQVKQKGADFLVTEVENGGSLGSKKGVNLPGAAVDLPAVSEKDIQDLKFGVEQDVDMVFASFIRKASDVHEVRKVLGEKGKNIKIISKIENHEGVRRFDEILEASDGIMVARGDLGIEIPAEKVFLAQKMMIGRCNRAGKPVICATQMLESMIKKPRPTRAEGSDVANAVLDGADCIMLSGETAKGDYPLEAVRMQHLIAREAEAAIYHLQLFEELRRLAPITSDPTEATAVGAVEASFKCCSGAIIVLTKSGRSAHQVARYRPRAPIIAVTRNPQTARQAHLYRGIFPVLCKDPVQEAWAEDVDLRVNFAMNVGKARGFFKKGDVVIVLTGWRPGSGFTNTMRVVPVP

stoichiometry N: 2
Substance: endogenous PKM2, P14618 1-531 (natural protein; other documents disagree on this pair)
